One molecule from patent US20170369592A1, “NOVEL ANTI-FIBROBLAST ACTIVATION PROTEIN (FAP) ANTIBODIES AND USES DERIVED THEREOF” (Mabimmune Diagnostics AG, priority 2015, published 2017) can be followed below.

Assay [1] has as its target directly coated FAP peptides mixture (cFAP). As to the kind of experiment: Direct ELISA, mixture of FAP-specific peptides directly coated. It counts as binding, human. The settings on record: non-linear regression. As for the experimental part: ELISA assays were performed with varying antibody concentrations to validate the binding of the exemplary antibodies of the present invention to FAP and to be able to determine their half maximal effective concentration (EC50). For the exemplary recombinant human NI-206.82C2, NI-206.59B4, NI-206.22F7, NI-206.27E8, NI-206.12G4 and NI-206.17A6 antibodies, 96-well microplates (Costar, Corning, USA) were coated with FAP, with a mixture of the 3 peptides or with BSA (Sigma-Aldrich, Buchs, Switzerland) diluted to a concentration of 5 μg/ml in carbonate ELISA coating buffer (15 mM Na2CO3, 35 mM NaHCO3, pH 9.4) for the direct ELISA. For the capture ELISA, the microplates were coated with mouse anti-His monoclonal antibody (Clontech) diluted to a concentration of 3 μg/ml in PBS, the plates were then blocked, FAP or BSA were diluted to a concentration of 2 μg/ml in PBS and added to the plates to be captured. The binding efficiency of the antibodies was then tested. The exemplary NI-206.82C2 antibody specifically and strongly binds to the captured FAP and less efficiently to the directly coated FAP. The exemplary NI-206.59B4 antibody specifically, strongly and similarly binds to the captured FAP and to the directly coated FAP.
The EC50 values were estimated by a non-linear regression using GraphPad Prism (San Diego, USA) software. […] The binding of NI-206.12G4 towards sFAP was not tested.
On the technique in general: ELISA stands for enzyme-linked immunosorbent assay.

The test system of assay [2] is murine CT-26 colorectal cancer tissue sections. Briefly: Immunofluorescence on murine colorectal cancer tissue sections. The arrangement: species or system mouse. The settings on record: Cy5 labelled antibody. The procedure: NI-206.82C2 was prelabelled with Cyanine 5 antibody labeling kit (Innova Biosciences, 342-0010), and sufficient antibody labelling was validated with a photospectrometer. Cryosections of mouse livers containing syngeneic CT-26 liver metastasis were allowed to dry for 30 min at room temperature the fixed for 10 min in 4% formalin in PBS. Slides were then washed 3 times for 5 minutes in PBS and blocked for 1 hr at room temperature with 5% bovine serum albumin in PBS. The slides were then incubated overnight at 4° C. with staining solution containing DAPI at 0.5 μg/mL, and Alexa 547 phalloidin (Invitrogen) according to the manufacturer's instructions, and either Cy5 labelled NI-206.82C2 or a Cy5 labelled isotype-matched control antibody 3A1 at a concentration of 10 µg/mL, in blocking solution with 0.5% Triton X100. Slides were then washed 3 times in PBS, mounted in Lisbeth's mounting medium, and imaged with an SP8 confocal microscope (Leica Microsystems).

The subject of assay [3] is human invasive ductal carcinoma and invasive lobular carcinoma sections. As to the kind of experiment: Confocal immunofluorescence on human carcinoma cryosections. The following applies: Cyanine 3 labelled antibody. As for the experimental part:
NI-206.82C2 was labelled with Cyanine 3 for fluorescent imaging (Cy3 conjugation kit: Innova Biosciences, 340-0030) and antibody labelling was validated using a spectophotometer. Cryosections from human invasive ductal carcinoma tissues (FIG. 9, A) and invasive lobular carcinoma (FIG. 9, B) were fixed for 5 minutes in ice cold acetone and allowed to dry for 10 minutes before washing in PBS. The sections were then incubated for 1 hr at room temperature in 5% BSA in PBS. The tissue sections were then incubated with Cyanine 3 prelabelled antibodies overnight at 4° C., and then washed three times in PBS before incubation with DAPI at 0.5 μg/mL. Sections were then washed three additional times in PBS and mounted in Lisbeth's mounting medium before imaging on a SP8 confocal microscope (Leica Microsystems).

B1: NI-206.82C2: recombinant human memory B cell-derived monoclonal anti-FAP IgG1 antibody, variable regions in FIG. 1A, FAP inhibitory (antibody, V domains shown)
VH: QVQLQQSGPGLVKPSQTLSLTCAISGDSVSSNSVTWNWIRQSPSRGLEWLGRTYYRSKWYNDYAVSVKGRITINPDTSKNQFYLQLKSVTPEDAAVYYCARDSSILYGDYWGQGTLVTVSS
VL: QAVLTQPSSLSASPGASASLTCTLPSGINVGTYRIFWFQQKPGSPPQYLLSYKSDSDNHQGSGVPSRFSGSKDASANAGILLISGLQSEDEADYYCMIWHSSAWVFGGGTKLTVL
On to B1, for which, in assay [1], the “EC50, binding to directly coated FAP peptides mixture (cFAP)” value was “did not show any binding”. In assay [2], the “staining of CT-26 syngeneic liver metastasis sections” value is given as “found around the perimeter”. Moreover, the “binding to human invasive ductal carcinoma and invasive lobular carcinoma sections” value in assay [3] was “specifically binds”.
